Key:
HLA-A*02:01 = HLA-A*02:01 (Homo sapiens, UniProt P04439, D140Y/D185E/D98H/E176V/E277Q/G131W/G231S/I119V/I121R/I166T/I218V/L300P/L318F/N151K/N90K/P208A/P217A/Q86G/Q94H/R138H/R169H/T345S); test: MHC binding assay: UV-ligand exchange with β2m ELISA (peptide exchange yield); conditions: MHC class I binding score; binding to HLA-A*02:01 ranged by peptide exchange yield (UV-ligand exchange, β2m ELISA)
In short: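 UV-cleavable peptide in HLA monomers exchanged for test peptide by UV irradiation; exchange yield measured by streptavidin-capture ELISA with HRP anti-β2m (TMB, 450 nm) on 100-fold diluted complexes. Quantified against refolded HLA-A*02:01/MLA-001 standards (15-500 ng/ml).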

CD8+ T cells = test: In vitro immunogenicity: T-cell priming with aAPCs loaded with peptide/MHC and anti-CD28, pMHC multimer readout; assay type: cell-based, human; conditions: CD8+ T cells of healthy donors, three stimulation cycles; for Wells positive [%]: HLA-A*02 restricted peptides; for wells (in vitro immunogenicity, positive wells): HLA class I peptides
Protocol: In an aspect, the peptides are pre-screened for immunogenicity before being included in the warehouse. By way of example, and not limitation, the immunogenicity of the peptides included in the warehouse is determined by a method comprising in vitro T-cell priming through repeated stimulations of CD8+ T cells from healthy donors with artificial antigen presenting cells loaded with peptide/MHC complexes and anti-CD28 antibody.
CD8+ T cells were primed using artificial APCs coated with anti-CD28 mAb and HLA-A*02 in complex with SeqID No 1 peptide (FIG. 3C, left panel), SeqID No 5 peptide (FIG. 3D left panel), SeqID No 32 peptide (FIG. 3E, left panel) and SeqID No 220 peptide (FIG. 3F, left panel), respectively. After three cycles of stimulation, the detection of peptide-reactive cells was performed by 2D multimer staining with A*02/SeqID No 1 (FIG. 3C), A*02/SeqID No 5 (FIG. 3D), A*02/SeqID No 32 (FIG. 3E) or A*02/SeqID No 220 (FIG. 3F). Right panels (FIGS. 3C, 3D, 3E and 3F) show control staining of cells stimulated with irrelevant A*02/peptide complexes. Viable singlet cells were gated for CD8+ lymphocytes. Boolean gates helped excluding false-positive events detected with multimers specific for different peptides.
In order to obtain information regarding the immunogenicity of the TUMAPs of the present invention, the inventors performed investigations using an in vitro T-cell priming assay based on repeated stimulations of CD8+ T cells with artificial antigen presenting cells (aAPCs) loaded with peptide/MHC complexes and anti-CD28 antibody.
In order to perform in vitro stimulations by artificial antigen presenting cells loaded with peptide-MHC complex (pMHC) and anti-CD28 antibody, the inventors first isolated CD8+ T cells from fresh HLA-A*02 leukapheresis products via positive selection using CD8 microbeads (Miltenyi Biotec, Bergisch-Gladbach, Germany) of healthy donors obtained from the University clinics Mannheim, Germany, after informed consent.
PBMCs and isolated CD8+ lymphocytes were incubated in T-cell medium (TCM) until use consisting of RPMI-Glutamax (Invitrogen, Karlsruhe, Germany) supplemented with 10% heat inactivated human AB serum (PAN-Biotech, Aidenbach, Germany), 100 U/ml Penicillin/100 μg/ml Streptomycin (Cambrex, Cologne, Germany), 1 mM sodium pyruvate (CC Pro, Oberdorla, Germany), 20 μg/ml Gentamycin (Cambrex). 2.5 ng/ml IL-7 (PromoCell, Heidelberg, Germany) and 10 U/ml IL-2 (Novartis Pharma, Nirnberg, Germany) were also added to the TCM at this step.
Generation of pMHC/anti-CD28 coated beads, T-cell stimulations and readout was performed in a highly defined in vitro system using four different pMHC molecules per stimulation condition and 8 different pMHC molecules per readout condition.
The purified co-stimulatory mouse IgG2a anti human CD28 Ab 9.3 (Jung et al., 1987) was chemically biotinylated using Sulfo-N-hydroxysuccinimidobiotin as recommended by the manufacturer (Perbio, Bonn, Germany). Beads used were 5.6 μm diameter streptavidin coated polystyrene particles (Bangs Laboratories, Illinois, USA).
800.000 beads/200 μl were coated in 96-well plates in the presence of 4×12.5 ng different biotin-pMHC, washed and 600 ng biotin anti-CD28 were added subsequently in a volume of 200 μl. Stimulations were initiated in 96-well plates by co-incubating 1×10^6 CD8+ T cells with 2×10^5 washed coated beads in 200 μl TCM supplemented with 5 ng/ml IL-12 (PromoCell) for 3 days at 37° C. Half of the medium was then exchanged by fresh TCM supplemented with 80 U/ml IL-2 and incubating was continued for 4 days at 37° C. This stimulation cycle was performed for a total of three times. For the pMHC multimer readout using 8 different pMHC molecules per condition, a two-dimensional combinatorial coding approach was used as previously described (Andersen et al., 2012) with minor modifications encompassing coupling to 5 different fluorochromes.

Substance	Peptide Exchange (HLA-A*02:01)	Wells positive [%] (CD8+ T cells)	wells (in vitro immunogenicity, positive wells) (CD8+ T cells)
1 (AIPPSFASIFL; listed as Homo sapiens) [compound 1]	″+++″ (≥50 = +++)	″+++″ (50%-69% = +++)	
2 (ALHRPDVYL; listed as Homo sapiens) [compound 2]	″+++″ (≥50 = +++)	″+″ (<20% = +)	
5 (ALIFKIASA; listed as Homo sapiens) [compound 5]	″+++″ (≥50 = +++)	″+++″ (50%-69% = +++)	
17 (ALTKTNLQL; listed as Homo sapiens) [compound 17]	″+++″ (≥50 = +++)	″+″ (<20% = +)	
26 (AVLLVLPLV; listed as Homo sapiens) [compound 26]	″+++″ (≥50 = +++)	″+″ (<20% = +)	
32 (FIDKFTPPV; listed as Homo sapiens) [compound 32]	″++++″ (≥75% = ++++)	″++++″ (> = 70% = ++++)	
49 (FLTDLFAQL; listed as Homo sapiens) [compound 49]	″++++″ (≥75% = ++++)	″++″ (20%-49% = ++)	
54 (FLYPFPLALF; listed as Homo sapiens) [compound 54]	″+++″ (≥50 = +++)	″+″ (<20% = +)	
56 (FVFEAPYTL; listed as Homo sapiens) [compound 56]	″+++″ (≥50 = +++)	″++″ (20%-49% = ++)	
57 (GLSEISLRL; listed as Homo sapiens) [compound 57]	″++++″ (≥75% = ++++)	″+″ (<20% = +)	
69 (GLHQREIFL; listed as Homo sapiens) [compound 69]	″+++″ (≥50 = +++)	″+″ (<20% = +)	
81 (WLVGQEFEL; listed as Homo sapiens) [compound 81]	″+++″ (≥50 = +++)	″+″ (<20% = +)	
86 (HLYPGAVTI; listed as Homo sapiens) [compound 86]	″+++″ (≥50 = +++)	″+″ (<20% = +)	
96 (ILIDKTSFV; listed as Homo sapiens) [compound 96]	″+++″ (≥50 = +++)	″+″ (<20% = +)	
100 (ILNNEVFAI; listed as Homo sapiens) [compound 100]	″+++″ (≥50 = +++)	″++″ (20%-49% = ++)	
101 (ILVVIEPLL; listed as Homo sapiens) [compound 101]	″++++″ (≥75% = ++++)	″+″ (<20% = +)	
102 (IQDRAVPSL; listed as Homo sapiens) [compound 102]	″++″ (≥20% = ++)	″+″ (<20% = +)	
112 (KTLDVDATYEI; listed as Homo sapiens) [compound 112]	″+++″ (≥50 = +++)	″+″ (<20% = +)	
114 (LIPEGPPQV; listed as Homo sapiens) [compound 114]	″+++″ (≥50 = +++)	″+″ (<20% = +)	
154 (SLLAELHVLTV; listed as Homo sapiens) [compound 154]	″++++″ (≥75% = ++++)	″+″ (<20% = +)	
363 (ITTEVVNELYV; listed as Homo sapiens) [compound 363]	″+++″ (≥50 = +++)		

Substance	Peptide Exchange (HLA-A*02:01)	Wells positive [%] (CD8+ T cells)	wells (in vitro immunogenicity, positive wells) (CD8+ T cells)
364 (KMDWIFHTI; listed as Homo sapiens) [compound 364]	″+++″ (≥50 = +++)		
365 (LISPLLLPV; listed as Homo sapiens) [compound 365]	″+++″ (≥50 = +++)		
367 (NLWSLVAKV; listed as Homo sapiens) [compound 367]	″+++″ (≥50 = +++)		
369 (RLLDLENSLLGL; listed as Homo sapiens) [compound 369]	″+++″ (≥50 = +++)		
370 (SIFASPESV; listed as Homo sapiens) [compound 370]	″+++″ (≥50 = +++)		
371 (SLADDSVLERL; listed as Homo sapiens) [compound 371]	″+++″ (≥50 = +++)		
372 (SLFGPLPGPGPALV; listed as Homo sapiens) [compound 372]	″+++″ (≥50 = +++)		
373 (TLLADQGEIRV; listed as Homo sapiens) [compound 373]	″++″ (≥20% = ++)		
374 (VLSVITEEL; listed as Homo sapiens) [compound 374]	″+++″ (≥50 = +++)		
375 (VLWFKPVEL; listed as Homo sapiens) [compound 375]	″+++″ (≥50 = +++)		
376 (VLYNQRVEEI; listed as Homo sapiens) [compound 376]	″+++″ (≥50 = +++)		
377 (VVDGTCVAV; listed as Homo sapiens) [compound 377]	″+++″ (≥50 = +++)		
378 (YILGKFFAL; listed as Homo sapiens) [compound 378]	″+++″ (≥50 = +++)		
379 (YLAELVTPIL; listed as Homo sapiens) [compound 379]	″+++″ (≥50 = +++)		
381 (YLLEENKIKL; listed as Homo sapiens) [compound 381]	″+++″ (≥50 = +++)		
382 (YLLPLLQRL; listed as Homo sapiens) [compound 382]	″++++″ (≥75% = ++++)		
383 (YLLREWVNL; listed as Homo sapiens) [compound 383]	″++++″ (≥75% = ++++)		
384 (YMIGSEVGNYL; listed as Homo sapiens) [compound 384]	″++++″ (≥75% = ++++)		
385 (YTIPLAIKL; listed as Homo sapiens) [compound 385]	″+++″ (≥50 = +++)		
427 (LLYDAVHIV; listed as Homo sapiens) [compound 427]			++ (20%-49% = ++)
521 (YLYGQTTTYL; listed as Homo sapiens) [compound 521]			++ (20%-49% = ++)
